B1: recombinant Tie1 extracellular domain, Fc fusion protein [not stated] / GST fusion protein of the 20th CCP domain of Polydom [mouse] (parent complex)
chain 1: AVDLTLLANLRLTDPQRFFLTCVSGEAGAGRGSDAWGPPLLLEKDDRIVRTPPGPPLRLARNGSHQVTLRGFSKPSDLVGVFSCVGGAGARRTRVIYVHNSPGAHLLPDKVTHTVNKGDTAVLSARVHKEKQTDVIWKSNGSYFYTLDWHEAQDGRFLLQLPNVQPPSSGIYSATYLEASPLGSAFFRLIVRGCGAGRWGPGCTKECPGCLHGGVCHDHDGECVCPPGFTGTRCEQACREGRFGQSCQEQCPGISGCRGLTFCLPDPYGCSCGSGWRGSQCQEACAPGHFGADCRLQCQCQNGGTCDRFSGCVCPSGWHGVHCEKSDRIPQILNMASELEFNLETMPRINCAAAGNPFPVRGSIELRKPDGTVLLSTKAIVEPEKTTAEFEVPRLVLADSGFWECRVSTSGGQDSRRFKVNVKVPPVPLAAPRLLTKQSRQLVVSPLVSFSGDGPISTVRLHYRPQDSTMDWSTIVVDPSENVTLMNLRPKTGYSVRVQLSRPGEGGEGAWGPPTLMTTDCPEPLLQPWLEGWHVEGTDRLRVSWSLPLVPGPLVGDGFLLRLWDGTRGQERRENVSSPQARTALLTGLTPGTHYQLDVQLYHCTLLGPASPPAHVLLPPSGPPAPRHLHAQALSDSEIQLTWKHPEALPGPISKYVVEVQVAGGAGDPLWIDVDRPEETSTIIRGLNASTRYLFRMRASIQGLGDWSNTVEESTLGNGLQAEGPVQESRAAEEGLDQ
chain 2: IHCSDPQPIENGFVEGADYRYGAMIIYSCFPGFQVLGHAMQTCEESGWSSSSPTCVP

Results on 13 variants are retold here after paper PMC10281526, “Polydom/SVEP1 binds to Tie1 and promotes migration of lymphatic endothelial cells” (The Journal of Cell Biology, 2023).

The variants in the assay derive from B1. The assay can be described thus: solid-phase binding assay; parent: 1.25; read off a plot.
chain 2 A23G: the response was about 1.4 A490. As to chain 2 D18A, the response is about 1.1 A490. The value for chain 2 Y21A was about 1.4 A490; that for chain 2 G22A was about 1.1 A490; that for chain 2 M24A was about 1.2 A490. With chain 2 V14A, the response is about 0.53 A490.

Regarding chain 2 Y19A, the response is about 1.4 A490. The value for chain 2 G16A was about 0.07 A490. As for chain 2 I26A, the response was about 1.3 A490. The value for chain 2 A17G was about 0.93 A490; that for chain 2 E15A was about 0.04 A490.

Consider chain 2 R20A, for which the response is about 1.3 A490. Consider chain 2 I25A, for which the response was about 0.6 A490.
